This note sets out measurements from PMC9637154.

Data set [1] is described as follows: cell-surface biotinylation, anti-hACE2 western blot. Conditions: glycan lost; control: full-length hACE2 wt. On the technique in general: In western blotting, separated proteins are transferred to a membrane and probed.
For data set [2] the following is noted: glycan lost.
A short description of data set [3]: focus reduction neutralization test, Vero E6 cells. Conditions: glycan lost; control: shACE2-wt.

Where two headings read alike, the source gives them in different places.

In the case of “angiotensin-converting enzyme 2 (hACE2): N53A”, in data set [1], the expression_or_secretion result is given as “no change”. Also, in data set [2], the “other: virus entry into hACE2-expressing cells” value is “decreases” and the “other: virus entry into hACE2-expressing cells, fold_change” value (shortened to “other … fold_change”) is on record as “decreases”.

With “angiotensin-converting enzyme 2 (hACE2): N53A/N90A/N322A”, in data set [3], the “other: decoy neutralising activity of shACE2, other: FRNT50” value (from here on “other: decoy neutralising activity”) is “increases”. Besides, the expression_or_secretion result in data set [1] is on record as “no change”. Further, in data set [2], the “other: virus entry into hACE2-expressing cells” value is recorded as “increases” and the “other … fold_change” value is listed as “increases”.

Regarding “angiotensin-converting enzyme 2 (hACE2): N90A”, the “other: decoy neutralising activity” value in data set [3] is given as “increases”. Besides, in data set [1], the expression_or_secretion result was “no change”. Besides, in data set [2], the “other: virus entry into hACE2-expressing cells” value was “increases” and the “other … fold_change” value is “increases”.

Turning to “angiotensin-converting enzyme 2 (hACE2): N90A/N322A”, the “other: decoy neutralising activity” value in data set [3] was “increases”. Further, in data set [1], the expression_or_secretion result is given as “no change”. Moreover, in data set [2], the “other: decoy neutralising activity” value is “increases”; the “other: virus entry into hACE2-expressing cells” value is recorded as “increases”; the “other … fold_change” value was “increases”.

As for “angiotensin-converting enzyme 2 (hACE2): N90S”, the “other: virus entry into hACE2-expressing cells” value in data set [2] is “increases”.

In the case of “angiotensin-converting enzyme 2 (hACE2): N90S/N322S”, in data set [2], the “other: virus entry into hACE2-expressing cells” value was “increases” and the “other … fold_change” value was “increases”.

In the case of “angiotensin-converting enzyme 2 (hACE2): N322A”, in data set [1], the expression_or_secretion result is listed as “no change”. Also, in data set [2], the “other: virus entry into hACE2-expressing cells” value is “increases” and the “other … fold_change” value was “increases”.

Turning to “angiotensin-converting enzyme 2 (hACE2): N322S”, the “other: virus entry into hACE2-expressing cells” value in data set [2] is listed as “increases”.
